Data on 5 molecules can be found in article PMC6889490, “General structural features that regulate integrin affinity revealed by atypical αVβ8” (Nature Communications, 2019).

The test system of one test is D8/D9 αVβ8. The settings on record: D8/D9 αVβ8 compared to WT; cited from earlier work. The source says: Mn^2+ increases affinity of αVβ6 in part by stabilizing headpiece opening. […] Results with αVβ8 were more complex. Substitution of one or both A ...
The next test deals with αVβ6-WT. The experiment in a line: Fluorescence polarization saturation binding, αVβ6-WT. The settings on record: 2, 5 and 10 nM probe, repeat1 and repeat2, 2 replicates each. The text has this:
As in statistical models for determining p values, the fit assumes that errors are independent and normally distributed. The reported fit minimizes the sum of the squared errors. […] Source data for a, b are provided as a Source Data file. c Representative negative stain class averages of mutant or WT integrin headpieces alone (upper panels) or complexed with pro-TGF-β1. Representative 2:1 pro-TGF-β1:integrin class averages are shown.
Background: In fluorescence polarisation assays a small probe gives low polarisation when free and higher when bound to something large.

In the next test the target is T1, αVβ8-mut6 headpiece (Homo sapiens, UniProt P06756+P26012, K165T/M430C/N161D/N162D/V301C).
T1 construct: residues 1–594 of the αV-subunit and 1–456 of the β8-subunit; made in house; host or cells: Expi293 cells (transient)
The experiment in a line: Negative stain EM headpiece opening, αVβ8-mut6. Particulars: 1 mM Mn2+/0.2 mM Ca2+. The source says:
Fig. 7 Regulation of ligand-binding affinity by atypical and typical residues in αVβ8 and αVβ6. a Mutations corresponding to sequence exchanges between αVβ8 (black) and αVβ6 (red) and effect on affinity for FITC-labeled TGF-β3 ligand peptide (GRGDLGRLKK) in presence of Mg^2+ and Mn^2+. […] As in statistical models for determining p values, the fit assumes that errors are independent and normally distributed. The reported fit minimizes the sum of the squared errors. […] Source data for a, b are provided as a Source Data file. c Representative negative stain class averages of mutant or WT integrin headpieces alone (upper panels) or complexed with pro-TGF-β1. Representative 2:1 pro-TGF-β1:integrin class averages are shown. The WT integrin class averages shown for comparison are previously published. d, e Residues in regions of βI domain allostery with unusual properties in αVβ8 (d) are compared to counterparts in αVβ6 (e). […] Mn^2+: 0.37 [0.18, 0.55] […]
αVβ8-mut3 or αVβ8-mut6 (15 μg) were mixed with pro-TGF-β1 at molar ratio 1.5:1 in 50 μl of HBS buffer containing 1 mM Mn^2+/0.2 mM Ca^2+ for 30 min and injected in a 24 ml Superdex 75 gel filtration column pre-equilibrated with HBS buffer (20 mM HEPEs, pH 7.5, 150 mM NaCl, 1 mM Mn^2+/0.2 mM Ca^2+). The 2:2, 2:1 complexes and unbound αVβ8 and pro-TGF-β1 were well separated. […]

A further test concerns the target T2, αVβ8-WT headpiece (Homo sapiens, UniProt P06756+P26012, M430C/V301C).
T2 construct: residues 1–594 of the αV-subunit and 1–456 of the β8-subunit; made in house; host or cells: HEK293S GntI−/− cells
The settings on record: Mn2+; negative stain EM; cited from earlier work.

The target of test [1] is T3, pro-TGF-β3 peptide (Homo sapiens).
T3 chain: {FITC-Ahx}-GRGDLGRLKK
The experiment in a line: fluorescence polarization.

Test [2] addresses T4, pro-TGF-β3 peptide (Homo sapiens).
T4 chain: {FITC-Ahx}-GRGDLGRLKK
The test can be described thus: fluorescence polarization.

Entries after “also recorded” stand apart in the source; their conditions may differ. Ends that are not written are not given here. * marks the point of attachment. FITC = O=C1OC2(c3ccc(O)cc3Oc3cc(O)ccc32)c2ccc(NC(=S)*)cc21; Ahx = NCCCCCC(=O)O

T1 sequence (P06756 31-624 M430C): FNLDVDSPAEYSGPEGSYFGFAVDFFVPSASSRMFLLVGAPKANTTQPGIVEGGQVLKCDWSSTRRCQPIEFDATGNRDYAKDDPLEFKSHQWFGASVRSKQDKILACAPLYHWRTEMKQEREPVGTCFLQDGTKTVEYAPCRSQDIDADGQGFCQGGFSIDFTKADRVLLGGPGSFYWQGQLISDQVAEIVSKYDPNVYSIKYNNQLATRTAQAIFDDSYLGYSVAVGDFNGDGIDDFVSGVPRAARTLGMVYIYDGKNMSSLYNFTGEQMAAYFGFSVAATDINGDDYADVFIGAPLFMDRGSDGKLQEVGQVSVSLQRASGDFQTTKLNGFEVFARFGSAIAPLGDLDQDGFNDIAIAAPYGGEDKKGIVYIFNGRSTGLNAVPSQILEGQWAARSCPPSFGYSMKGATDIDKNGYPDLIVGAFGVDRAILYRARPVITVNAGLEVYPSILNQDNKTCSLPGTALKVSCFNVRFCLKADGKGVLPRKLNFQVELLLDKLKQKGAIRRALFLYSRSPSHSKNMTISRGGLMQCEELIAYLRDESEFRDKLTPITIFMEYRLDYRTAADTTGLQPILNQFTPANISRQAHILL
T1 sequence (P26012 43-498 N161D/N162D/K165T/V301C): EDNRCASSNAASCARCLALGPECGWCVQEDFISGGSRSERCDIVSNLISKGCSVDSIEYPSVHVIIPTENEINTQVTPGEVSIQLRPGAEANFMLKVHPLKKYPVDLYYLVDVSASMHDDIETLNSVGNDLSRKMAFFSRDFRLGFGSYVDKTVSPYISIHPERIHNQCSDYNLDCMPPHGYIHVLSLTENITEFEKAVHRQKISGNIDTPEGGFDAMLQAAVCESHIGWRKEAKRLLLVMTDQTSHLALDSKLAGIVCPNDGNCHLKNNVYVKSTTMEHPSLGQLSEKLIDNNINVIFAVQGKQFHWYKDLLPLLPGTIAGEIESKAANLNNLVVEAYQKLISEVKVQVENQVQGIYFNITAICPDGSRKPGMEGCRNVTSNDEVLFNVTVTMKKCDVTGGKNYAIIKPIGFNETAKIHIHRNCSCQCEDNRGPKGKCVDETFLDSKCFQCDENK
T2 sequence (P06756 31-624 M430C): as the sequence (P06756 31-624 M430C) above
T2 sequence (P26012 43-498 V301C): as the sequence (P26012 43-498 N161D/N162D/K165T/V301C) above, with D119N, D120N, T123K counted along it

As to “vitronectin: vitronectin, integrin ligand measured in cell binding in a cited study”, the “amount of vitronectin binding to cells” value in the test with D8/D9 αVβ8 is listed as “decreased binding of D8/D9 αVβ8 compared to WT”.

By Kd is commonly meant a measure of binding affinity in units of concentration. Low values mean tighter binding, high ones weaker binding. In the case of avb6-WT, the Kd at αVβ6-WT (Mg fitting results, Std.Error 1.672e-10, 99% confidence interval 2.49E-09 (lower), 3.37E-09 (upper)) turned out to be 2.93 nM; on αVβ6-WT (Mn fitting results, Std.Error 5.139e-11, 99% confidence interval 1.21E-10 (lower), 3.88E-10 (upper)), 0.254 nM.

Regarding “pro-TGF-β1: Human pro-TGFβ-1 with a R249A cleavage site mutation”, the “headpiece conformation when bound to pro-TGF-β1” value in the test with αVβ8-mut6 headpiece is reported as “remained closed; also recorded: neither mutant showed the open headpiece”; with αVβ8-WT headpiece, “remained closed”.

B1: Integrin αVβ8 headpiece αV 1-594 + β8 1-456 (protein)
chain 1: FNLDVDSPAEYSGPEGSYFGFAVDFFVPSASSRMFLLVGAPKANTTQPGIVEGGQVLKCDWSSTRRCQPIEFDATGNRDYAKDDPLEFKSHQWFGASVRSKQDKILACAPLYHWRTEMKQEREPVGTCFLQDGTKTVEYAPCRSQDIDADGQGFCQGGFSIDFTKADRVLLGGPGSFYWQGQLISDQVAEIVSKYDPNVYSIKYNNQLATRTAQAIFDDSYLGYSVAVGDFNGDGIDDFVSGVPRAARTLGMVYIYDGKNMSSLYNFTGEQMAAYFGFSVAATDINGDDYADVFIGAPLFMDRGSDGKLQEVGQVSVSLQRASGDFQTTKLNGFEVFARFGSAIAPLGDLDQDGFNDIAIAAPYGGEDKKGIVYIFNGRSTGLNAVPSQILEGQWAARSMPPSFGYSMKGATDIDKNGYPDLIVGAFGVDRAILYRARPVITVNAGLEVYPSILNQDNKTCSLPGTALKVSCFNVRFCLKADGKGVLPRKLNFQVELLLDKLKQKGAIRRALFLYSRSPSHSKNMTISRGGLMQCEELIAYLRDESEFRDKLTPITIFMEYRLDYRTAADTTGLQPILNQFTPANISRQAHILLDCGEDNVCKPKLEVSVDSDQKKIYIGDDNPLTLIVKAQNQGEGAYEAELIVSIPLQADFIGVVRNNEALARLSCAFKTENQTRQVVCDLGNPMKAGTQLLAGLRFSVHQQSEMDTSVKFDLQIQSSNLFDKVSPVVSHKVDLAVLAAVEIRGVSSPDHVFLPIPNWEHKENPETEEDVGPVVQHIYELRNNGPSSFSKAMLHLQWPYKYNNNTLLYILHYDIDGPMNCTSDMEINPLRIKISSLQTTEKNDTVAGQGERDHLITKRDLALSEGDIHTLGCGVAQCLKIVCQVGRLDRGKSAILYVKSLLWTETFMNKENQNHSYSLKSSASFNVIEFPYKNLPIEDITNSTLVTTNVTWGIQPAPMPV
chain 2: EDNRCASSNAASCARCLALGPECGWCVQEDFISGGSRSERCDIVSNLISKGCSVDSIEYPSVHVIIPTENEINTQVTPGEVSIQLRPGAEANFMLKVHPLKKYPVDLYYLVDVSASMHNNIEKLNSVGNDLSRKMAFFSRDFRLGFGSYVDKTVSPYISIHPERIHNQCSDYNLDCMPPHGYIHVLSLTENITEFEKAVHRQKISGNIDTPEGGFDAMLQAAVCESHIGWRKEAKRLLLVMTDQTSHLALDSKLAGIVVPNDGNCHLKNNVYVKSTTMEHPSLGQLSEKLIDNNINVIFAVQGKQFHWYKDLLPLLPGTIAGEIESKAANLNNLVVEAYQKLISEVKVQVENQVQGIYFNITAICPDGSRKPGMEGCRNVTSNDEVLFNVTVTMKKCDVTGGKNYAIIKPIGFNETAKIHIHRNCSCQCEDNRGPKGKCVDETFLDSKCFQCDENKCHFDEDQFSSESCKSHKDQPVCSGRGVCVCGKCSCHKIKLGKVYGKYCEKDDFSCPYHHGNLCAGHGECEAGRCQCFSGWEGDRCQCPSAAAQHCVNSKGQVCSGRGTCVCGRCECTDPRSIGRFCEHCPTCYTACKENWNCMQCLHPHNLSQAILDQCKTSCALMEQQHYVDQTSECFSSPSYLR
B1 returned a Kd with pro-TGF-β3 peptide [1] of 30 nM.

B2: Integrin αVβ6 headpiece headpiece (protein)
chain 1: B1 chain 1
chain 2: GCALGGAETCEDCLLIGPQCAWCAQENFTHPSGVGERCDTPANLLAKGCQLNFIENPVSQVEILKNKPLSVGRQKNSSDIVQIAPQSLILKLRPGGAQTLQVHVRQTEDYPVDLYYLMDLSASMDDDLNTIKELGSRLSKEMSKLTSNFRLGFGSFVEKPVSPFVKTTPEEIANPCSSIPYFCLPTFGFKHILPLTNDAERFNEIVKNQKISANIDTPEGGFDAIMQAAVCKEKIGWRNDSLHLLVFVSDADSHFGMDSKLAGIVIPNDGLCHLDSKNEYSMSTVLEYPTIGQLIDKLVQNNVLLIFAVTQEQVHLYENYAKLIPGATVGLLQKDSGNILQLIISAYEELRSEVELEVLGDTEGLNLSFTAICNNGTLFQHQKKCSHMKVGDTASFSVTVNIPHCERRSRHIIIKPVGLGDALELLVSPECNCDCQKEVEVNSSKCHHGNGSFQCGVCACHPGHMGPRCECGEDMLSTDSCKEAPDHPSCSGRGDCYCGQCICHLSPYGNIYGPYCQCDNFSCVRHKGLLCGGNGDCDCGECVCRSGWTGEYCNCTTSTDSCVSEDGVLCSGRGDCVCGKCVCTNPGASGPTCERCPTCGDPCNSKRSCIECHLSAAGQAREECVDKCKLAGATISEEEDFSKDGSVSCSLQGENECLITFLITTDNEGKTIIHSINEKDCPKPPNIP
In the case of B2, binding in the test with pro-TGF-β3 peptide [2] was characterised by a dissociation constant (Kd) of 12 nM.
